The results in this text go back to PMC9388138.

What all share (assay): flow cytometry on cells; T cells stably expressing the IL13-based CARs titrated with recombinant biotinylated receptor (IL13Rα1-Fc, IL13Rα2-Fc or mouse IL13Rα1); dose-response curves, three independent trials
Background: A flow cytometer gives signals particle by particle.

Test [1] addresses IL13 E12Y CAR (IL13 E12Y - IgG4(EQ)-Fc linker - CD28 transmembrane and costimulatory domain - CD3ζ) on T cells.
Test [2] deals with IL13 WT CAR (IL13 - IgG4(EQ)-Fc linker - CD28 transmembrane and costimulatory domain - CD3ζ) on T cells.
Test [3] has as its target IL13 C4 CAR (IL13 C4 - IgG4(EQ)-Fc linker - CD28 transmembrane and costimulatory domain - CD3ζ) on T cells.
The target of test [4] is IL13 D7 CAR (IL13 D7 - IgG4(EQ)-Fc linker - CD28 transmembrane and costimulatory domain - CD3ζ) on T cells.

B1: Recombinant human IL13Rα1-Fc chimera (Fc fusion)
chain: GGGGAAPTETQPPVTNLSVSVENLCTVIWTWNPPEGASSNCSLWYFSHFGDKQDKKIAPETRRSIEVPLNERICLQVGSQCSTNESEKPSILVEKCISPPEGDPESAVTELQCIWHNLSYMKCSWLPGRNTSPDTNYTLYYWHRSLEKIHQCENIFREGQYFGCSFDLTKVKDSSFEQHSVQIMVKDNAGKIKPSFNIVPLTSRVKPDPPHIKNLSFHNDDLYVQWENPQNFISRCLFYEVEVNNSQTETHNVFYVQEAKCENPEFERNVENTSCFMVPGVLPDTLNTVRIRVKTNKLCYEDDKLWSNWSQEMSIGKKRNST
modifications: biotin (in the titration of CAR T cells)
With B1, the Kd in test [1] and in test [2] was 34 nM each time.

B2: Recombinant human IL13Rα2-Fc chimera (Fc fusion)
chain: DTEIKVNPPQDFEIVDPGYLGYLYLQWQPPLSLDHFKECTVEYELKYRNIGSETWKTIITKNLHYKDGFDLNKGIEAKIHTLLPWQCTNGSEVQSSWAETTYWISPQGIPETKVQDMDCVYYNWQYLLCSWKPGIGVLLDTNYNLFYWYEGLDHALQCVDYIKADGQNIGCRFPYLEASDYKDFYICVNGSSENKPIRSSYFTFQLQNIVKPLPPVYLTFTRESSCEIKLKWSIPLGPIPARCFDYEIEIREDDTTLVTATVENETYTLKTTNETRQLCFVVRSKVNIYCSDDGIWSEWSDKQCWEGEDLSKKTLLR
modifications: biotin (in the titration of CAR T cells)
Take B2: the Kd (commonly the free concentration of one partner at which half of the binding sites on the other are occupied at equilibrium, for simple one-to-one binding) amounted to 29 nM in test [3], 1.8 nM in test [1], 1.7 nM in test [2] and 4.2 nM in test [4].
